Reference: patent US20110152166A1, “METHOD OF MODULATION OF PROTEIN PHOSPHORYLATION-DEPENDENT CONFORMATIONAL TRANSITIONS WITH LOW MOLECULAR WEIGHT COMPOUNDS” (priority 2006, published 2011)

Target: T1, S6K11-364K144N (Rattus norvegicus, UniProt P67999, K167N)
T1 construct: Purified HA-S6K1-364 was incubated with synthetic S6K1 (rat) tail peptides; made in house; host or cells: COS7; anti-HA immunoprecipitate
Experiment: S6K1 in vitro reconstitution kinase assay with tail peptides
Assay type: biochemical
Details: peptide 90 μM
Procedure: FIG. 13. The tail phosphate synergistically enhances the ability of the HM phosphate to activate S6K, dependent on the tail phosphate-binding site. (A) The kinase activity of purified kinase domain of S6K1 (S6K11-364), pre-phosphorylated by PDK1 in the activation loop, was determined in the presence of increasing concentrations of synthetic S6K1 tail peptide (residues 366-395) that was either non-phosphorylated (S371/T389), phosphorylated at Ser371 (pS371/T389) or Thr389 (5371/pT389) or phosphorylated at both sites (pS371/pT389). (B) The kinase activity of S6K11-364 and S6K11-364K144N, either pre-phosphorylated or not by PDK1, was determined in the absence or presence of 90 μM S371/pT389 or pS371/pT389. (C) pS371/pT389 S6K1 tail peptide was biotinylated and used to coat streptavidin Sensor Chips. The chips were thereafter analyzed for binding to purified GST-S6K11-365 or GST-56K11-365K144N. (A-C) Experiments were repeated at least 3 times and activity data (expressed as percent) are means±SD.
We established an in vitro reconstitution assay that could test a direct activation of the AGC kinase domain by the tail phosphate and characterize its cooperation with the HM and activation loop phosphates. […] Subsequently, the kinase activity of S6K11-364 was determined. […]

T1 sequence (P67999 24-387 K167N): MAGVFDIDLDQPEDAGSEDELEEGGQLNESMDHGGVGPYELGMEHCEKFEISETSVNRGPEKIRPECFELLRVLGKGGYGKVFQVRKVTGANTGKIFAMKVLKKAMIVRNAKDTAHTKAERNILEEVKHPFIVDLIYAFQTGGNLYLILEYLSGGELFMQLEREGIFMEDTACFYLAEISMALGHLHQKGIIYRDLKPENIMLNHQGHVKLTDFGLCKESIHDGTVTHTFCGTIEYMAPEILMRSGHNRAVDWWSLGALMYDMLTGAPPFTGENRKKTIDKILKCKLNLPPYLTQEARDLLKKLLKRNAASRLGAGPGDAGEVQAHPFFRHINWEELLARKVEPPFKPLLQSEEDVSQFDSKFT

Substance: S371/pT389: synthetic S6K1 tail peptide (residues 366-395) phosphorylated in the HM
- activation of S6K11-364K144N (in words): activated normally
